The target in this assay is T1, recombinant Strep-Flag-IL-17 (SF-IL-17), murine (mouse), Q62386.
T1 chain: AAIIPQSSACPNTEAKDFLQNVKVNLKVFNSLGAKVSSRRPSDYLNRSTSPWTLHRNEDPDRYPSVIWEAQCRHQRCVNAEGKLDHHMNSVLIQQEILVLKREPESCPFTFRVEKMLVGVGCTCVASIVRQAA
Briefly: SDS-PAGE without and with DTT, Coomassie stain; purified SF-IL-17 in SDS sample buffer, untreated or reduced with 50 mM DTT. The settings on record: remark: other sources report otherwise.

B1: recombinant Strep-Flag-IL-17 (SF-IL-17), murine, Q62386 26-158 (ligand)
chain: T1 chain
On to B1, for which the stoichiometry N was determined as 2.

By stoichiometry N is commonly meant the number of molecules, sites or subunits per partner or assembly.

The values above are taken from article PMC7459424.
